The target of assay [1] is T1, G9a and GLP (Homo sapiens, UniProt Q96KQ7+Q9H9B1).
T1 sequence (Q96KQ7 2-1210 limits assumed): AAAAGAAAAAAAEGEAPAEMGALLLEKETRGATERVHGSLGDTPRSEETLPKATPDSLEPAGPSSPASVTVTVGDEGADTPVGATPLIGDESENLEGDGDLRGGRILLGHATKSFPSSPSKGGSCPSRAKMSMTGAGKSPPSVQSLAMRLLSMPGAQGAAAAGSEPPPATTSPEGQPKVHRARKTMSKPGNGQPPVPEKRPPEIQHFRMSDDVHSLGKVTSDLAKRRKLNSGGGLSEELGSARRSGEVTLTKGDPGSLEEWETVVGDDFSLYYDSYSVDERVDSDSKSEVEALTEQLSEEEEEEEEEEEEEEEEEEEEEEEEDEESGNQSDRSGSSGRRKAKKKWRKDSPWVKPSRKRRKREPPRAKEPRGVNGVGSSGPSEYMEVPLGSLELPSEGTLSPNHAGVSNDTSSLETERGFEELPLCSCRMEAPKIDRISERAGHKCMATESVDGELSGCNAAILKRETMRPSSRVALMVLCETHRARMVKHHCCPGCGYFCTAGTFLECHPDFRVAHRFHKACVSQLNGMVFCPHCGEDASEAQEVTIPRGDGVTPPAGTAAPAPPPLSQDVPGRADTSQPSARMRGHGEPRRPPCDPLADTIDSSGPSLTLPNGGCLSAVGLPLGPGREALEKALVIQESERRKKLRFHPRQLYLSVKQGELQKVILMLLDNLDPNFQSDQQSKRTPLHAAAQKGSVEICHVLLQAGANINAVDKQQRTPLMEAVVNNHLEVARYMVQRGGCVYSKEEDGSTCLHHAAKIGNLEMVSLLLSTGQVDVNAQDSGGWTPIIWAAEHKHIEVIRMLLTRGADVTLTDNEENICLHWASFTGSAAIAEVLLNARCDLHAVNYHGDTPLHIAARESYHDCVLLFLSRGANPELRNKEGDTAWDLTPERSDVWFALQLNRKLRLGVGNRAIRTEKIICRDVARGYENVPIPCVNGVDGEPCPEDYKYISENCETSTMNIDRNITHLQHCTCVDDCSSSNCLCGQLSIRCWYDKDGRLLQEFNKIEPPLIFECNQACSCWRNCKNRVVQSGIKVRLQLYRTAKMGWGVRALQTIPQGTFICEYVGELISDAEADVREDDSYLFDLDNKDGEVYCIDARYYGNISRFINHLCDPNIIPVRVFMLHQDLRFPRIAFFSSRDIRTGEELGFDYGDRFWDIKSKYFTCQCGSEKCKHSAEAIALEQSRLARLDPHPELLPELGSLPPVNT
T1 sequence (Q9H9B1 2-1298 limits assumed): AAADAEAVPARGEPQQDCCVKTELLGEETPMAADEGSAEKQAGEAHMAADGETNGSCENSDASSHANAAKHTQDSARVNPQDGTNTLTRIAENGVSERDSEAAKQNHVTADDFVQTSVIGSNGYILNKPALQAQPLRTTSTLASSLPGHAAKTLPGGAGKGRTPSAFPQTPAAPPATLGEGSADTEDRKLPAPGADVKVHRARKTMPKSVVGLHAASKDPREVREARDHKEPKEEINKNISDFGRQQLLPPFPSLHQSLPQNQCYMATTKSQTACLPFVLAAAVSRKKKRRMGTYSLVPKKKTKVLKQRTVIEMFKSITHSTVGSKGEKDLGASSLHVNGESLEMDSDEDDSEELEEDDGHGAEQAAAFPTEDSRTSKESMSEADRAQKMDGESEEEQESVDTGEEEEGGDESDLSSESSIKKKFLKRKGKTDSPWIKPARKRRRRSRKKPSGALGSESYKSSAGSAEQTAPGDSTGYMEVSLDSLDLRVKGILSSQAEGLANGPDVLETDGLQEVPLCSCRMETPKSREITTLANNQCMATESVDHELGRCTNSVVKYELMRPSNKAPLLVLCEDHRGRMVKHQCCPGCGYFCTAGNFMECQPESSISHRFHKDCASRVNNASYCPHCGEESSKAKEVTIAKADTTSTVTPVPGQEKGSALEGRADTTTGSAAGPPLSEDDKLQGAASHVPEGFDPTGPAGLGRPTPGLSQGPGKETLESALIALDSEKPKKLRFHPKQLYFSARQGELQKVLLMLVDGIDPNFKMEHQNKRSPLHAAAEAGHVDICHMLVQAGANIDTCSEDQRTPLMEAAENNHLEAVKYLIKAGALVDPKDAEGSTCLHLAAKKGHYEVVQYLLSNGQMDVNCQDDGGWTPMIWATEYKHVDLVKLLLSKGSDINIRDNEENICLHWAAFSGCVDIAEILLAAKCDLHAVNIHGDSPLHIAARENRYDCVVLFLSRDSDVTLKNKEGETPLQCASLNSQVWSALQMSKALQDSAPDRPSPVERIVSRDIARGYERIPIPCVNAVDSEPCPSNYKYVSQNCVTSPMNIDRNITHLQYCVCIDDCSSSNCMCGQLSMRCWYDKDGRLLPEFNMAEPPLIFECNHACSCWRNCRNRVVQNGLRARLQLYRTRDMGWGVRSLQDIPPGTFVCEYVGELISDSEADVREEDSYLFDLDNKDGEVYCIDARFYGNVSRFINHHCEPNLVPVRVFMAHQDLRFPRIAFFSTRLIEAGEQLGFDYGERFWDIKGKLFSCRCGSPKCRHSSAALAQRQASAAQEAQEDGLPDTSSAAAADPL
Kind of assay: Triple SILAC pull-down after UNC0638 treatment of 293T cells, DMSO/UNC0638 ratio of protein captured by 3×MBT.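 For all read-outs here: mass spectrometry (Q-Exactive) SILAC quantitation, DMSO/UNC0638 ratio computed after subtracting 3×MBTD355N mutant pull-down background, only proteins with at least twofold 3×MBT over mutant signal considered.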 The arrangement: cells were treated for 24 hours with UNC0638 at 2.5 μM or DMSO vehicle control; endogenous in cells; host or cells: HEK 293T. It is filed as cell-based. To be noted: for Relative to UNC0638 UNC Heavy: UNC0638 in heavy SILAC media; for Relative to UNC0638 UNC Light: UNC0638 in light SILAC media; for Relative to UNC0638 Average: average of UNC Light and UNC Heavy experiments.

Assay [2] relates to 3×MBT domain of L3MBTL1. As to the kind of experiment: Triple SILAC pull-down, 3xMBT/3xMBTD355N ratio (cytoplasmic, nuclear and chromatin fractions of 293T cells).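 For all read-outs here: proteins quantified with MaxQuant, requiring at least two unique peptides and quantification in both label directions, normalized to the mean of proteins from a digested loading control.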 The conditions noted are these: for 3xMBT/D355N UNC Heavy: experiment with UNC0638 in heavy SILAC media; for 3xMBT/D355N UNC Light: experiment with UNC0638 in light SILAC media. Type of assay: binding, human.
[3] abbreviates: SILAC ratio DMSO/UNC0638 of protein pulled down with 3xMBT.
[4] abbreviates: SILAC ratio, pull-down 3xMBT vs 3xMBTD355N.
The mark [5] stands for this setting: SILAC ratio DMSO relative to UNC0638, pull-down with 3xMBT, all values in log base 2.
The mark [6] stands for this setting: SILAC ratio 3xMBT vs 3xMBTD355N pull-down, 293T cells, all values in log base 2.

B1: UBAP2 (protein, UniProt Q5T6F2 1-1119, looked up)
Ubiquitin-associated protein 2: MMTSVSSDHCRGAREKPQISAAQSTQPQKQVVQATAEQMRLAQVIFDKNDSDFEAKVKQLMEVTGKNQDECIVALHDCNGDVNKAINILLEGNSDTTSWETVGCKKKNFAKENSENKENREKKSEKESSRGRGNNNRKGRGGNRGREFRGEENGIDCNQVDKPSDRGKRARGRGFGRGRGRGAGRFSTQGMGTFNPADYSDSTSTDVCGTKLVVWEAAQNGADEGTELASNTHNIAQDLSNKSSYGLKGAWKNSVEEWTTEDWTEDLSETKVFTASSAPAENHILPGQSIDLVALLQKPVPHSQASEANSFETSQQQGFGQALVFTNSQHNNQMAPGTGSSTAVNSCSPQSLSSVLGSGFGELAPPKMANITSSQILDQLKAPSLGQFTTTPSTQQNSTSHPTTTTSWDLKPPTSQSSVLSHLDFKSQPEPSPVLSQLSQRQQHQSQAVTVPPPGLESFPSQAKLRESTPGDSPSTVNKLLQLPSTTIENISVSVHQPQPKHIKLAKRRIPPASKIPASAVEMPGSADVTGLNVQFGALEFGSEPSLSEFGSAPSSENSNQIPISLYSKSLSEPLNTSLSMTSAVQNSTYTTSVITSCSLTSSSLNSASPVAMSSSYDQSSVHNRIPYQSPVSSSESAPGTIMNGHGGGRSQQTLDTPKTTGPPSALPSVSSLPSTTSCTALLPSTSQHTGDLTSSPLSQLSSSLSSHQSSLSAHAALSSSTSHTHASVESASSHQSSATFSTAATSVSSSASSGASLSSSMNTANSLCLGGTPASASSSSSRAAPLVTSGKAPPNLPQGVPPLLHNQYLVGPGGLLPAYPIYGYDELQMLQSRLPVDYYGIPFAAPTALASRDGSLANNPYPGDVTKFGRGDSASPAPATTPAQPQQSQSQTHHTAQQPFVNPALPPGYSYTGLPYYTGMPSAFQYGPTMFVPPASAKQHGVNLSTPTPPFQQASGYGQHGYSTGYDDLTQGTAAGDYSKGGYAGSSQAPNKSAGSGPGKGVSVSSSTTGLPDMTGSVYNKTQTFDKQGFHAGTPPPFSLPSVLGSTGPLASGAAPGYAPPPFLHILPAHQQPHSQLLHHHLPQDAQSGSGQRSQPSSLQPKSQASKPAYGNSPYWTN
For the molecule B1, in assay [1] (setting [3]), the “Relative to UNC0638 UNC Heavy” value is 0.20 log base 2 and the “Relative to UNC0638 UNC Light” value is given as 0.04 log base 2. Moreover, the “Relative to UNC0638 Average” value in assay [1] is given as 0.12 log base 2. Also, in assay [2] (setting [4]), the “3xMBT/D355N UNC Heavy” value turned out to be 2.90 log base 2 and the “3xMBT/D355N UNC Light” value is 1.92 log base 2.

B2: TRMT61A (protein, UniProt Q96FX7 2-289, looked up)
tRNA …: SFVAYEELIKEGDTAILSLGHGAMVAVRVQRGAQTQTRHGVLRHSVDLIGRPFGSKVTCGRGGWVYVLHPTPELWTLNLPHRTQILYSTDIALITMMLELRPGSVVCESGTGSGSVSHAIIRTIAPTGHLHTVEFHQQRAEKAREEFQEHRVGRWVTVRTQDVCRSGFGVSHVADAVFLDIPSPWEAVGHAWDALKVEGGRFCSFSPCIEQVQRTCQALAARGFSELSTLEVLPQVYNVRTVSLPPPDLGTGTDGPAGSDTSPFRSGTPMKEAVGHTGYLTFATKTPG
On to B2, for which, in assay [1] (setting [3]), the “Relative to UNC0638 UNC Heavy” value was −0.07 log base 2 and the “Relative to UNC0638 UNC Light” value came to 0.29 log base 2. Further, in assay [1], the “Relative to UNC0638 Average” value stood at 0.11 log base 2. Further, in assay [2] (setting [4]), the “3xMBT/D355N UNC Heavy” value is reported as 2.78 log base 2 and the “3xMBT/D355N UNC Light” value was 3.82 log base 2.

B3: SEC23A (protein, UniProt Q15436 2-765, looked up)
Protein transport protein …: TTYLEFIQQNEERDGVRFSWNVWPSSRLEATRMVVPVAALFTPLKERPDLPPIQYEPVLCSRTTCRAVLNPLCQVDYRAKLWACNFCYQRNQFPPSYAGISELNQPAELLPQFSSIEYVVLRGPQMPLIFLYVVDTCMEDEDLQALKESMQMSLSLLPPTALVGLITFGRMVQVHELGCEGISKSYVFRGTKDLSAKQLQEMLGLSKVPLTQATRGPQVQQPPPSNRFLQPVQKIDMNLTDLLGELQRDPWPVPQGKRPLRSSGVALSIAVGLLECTFPNTGARIMMFIGGPATQGPGMVVGDELKTPIRSWHDIDKDNAKYVKKGTKHFEALANRAATTGHVIDIYACALDQTGLLEMKCCPNLTGGYMVMGDSFNTSLFKQTFQRVFTKDMHGQFKMGFGGTLEIKTSREIKISGAIGPCVSLNSKGPCVSENEIGTGGTCQWKICGLSPTTTLAIYFEVVNQHNAPIPQGGRGAIQFVTQYQHSSGQRRIRVTTIARNWADAQTQIQNIAASFDQEAAAILMARLAIYRAETEEGPDVLRWLDRQLIRLCQKFGEYHKDDPSSFRFSETFSLYPQFMFHLRRSSFLQVFNNSPDESSYYRHHFMRQDLTQSLIMIQPILYAYSFSGPPEPVLLDSSSILADRILLMDTFFQILIYHGETIAQWRKSGYQDMPEYENFRHLLQAPVDDAQEILHSRFPMPRYIDTEHGGSQARFLLSKVNPSQTHNNMYAWGQESGAPILTDDVSLQVFMDHLKKLAVSSAA
For B3, in assay [1] (setting [5]), the “Relative to UNC0638 UNC Heavy” value came to 0.22 log base 2 and the “Relative to UNC0638 UNC Light” value was −0.01 log base 2. Moreover, the “Relative to UNC0638 Average” value in assay [1] (all values in log base 2) was found to be 0.11 log base 2. In assay [2] (setting [6]), the “3xMBT/D355N UNC Heavy” value stood at 2.56 log base 2 and the “3xMBT/D355N UNC Light” value came out at 3.17 log base 2.

B4: PABPN1 (protein, UniProt Q86U42 2-306, looked up)
Polyadenylate-binding protein …: AAAAAAAAAAGAAGGRGSGPGRRRHLVPGAGGEAGEGAPGGAGDYGNGLESEELEPEELLLEPEPEPEPEEEPPRPRAPPGAPGPGPGSGAPGSQEEEEEPGLVEGDPGDGAIEDPELEAIKARVREMEEEAEKLKELQNEVEKQMNMSPPPGNAGPVIMSIEEKMEADARSIYVGNVDYGATAEELEAHFHGCGSVNRVTILCDKFSGHPKGFAYIEFSDKESVRTSLALDESLFRGRQIKVIPKRTNRPGISTTDRGFPRARYRARTTNYNSSRSRFYSGFNSRPRGRVYRGRARATSWYSPY
Consider B4, for which, in assay [1] (setting [3]), the “Relative to UNC0638 UNC Heavy” value is given as 0.21 log base 2 and the “Relative to UNC0638 UNC Light” value stood at 0.04 log base 2. In assay [1], the “Relative to UNC0638 Average” value amounted to 0.13 log base 2. In addition, in assay [2] (setting [4]), the “3xMBT/D355N UNC Heavy” value was determined as 3.77 log base 2 and the “3xMBT/D355N UNC Light” value came to 4.04 log base 2.

The values are drawn from US20140274782A1, “AFFINITY REAGENTS AND METHODS FOR DETECTION, PURIFICATION, AND PROTEOMIC ANALYSIS OF METHYLATED PROTEINS” (The Board of Trustees of the Leland Stanford Junior …, priority 2013, published 2014).
